In patent US10772928B2, “Modulation and detection of a neuronal alternative splicing regulatory network for treatment and diagnosis of neurological disorders” (The Governing Council of the University of Toronto, priority 2014, dated 2020):
Blank lines part the entries; values can stand above or below the molecule they belong to.

Molecular target: T1, nSR100 (Mus musculus, UniProt Q8BKA3)
T1 construct: host or cells: mouse N2A cells
T1 sequence (Q8BKA3 1-608): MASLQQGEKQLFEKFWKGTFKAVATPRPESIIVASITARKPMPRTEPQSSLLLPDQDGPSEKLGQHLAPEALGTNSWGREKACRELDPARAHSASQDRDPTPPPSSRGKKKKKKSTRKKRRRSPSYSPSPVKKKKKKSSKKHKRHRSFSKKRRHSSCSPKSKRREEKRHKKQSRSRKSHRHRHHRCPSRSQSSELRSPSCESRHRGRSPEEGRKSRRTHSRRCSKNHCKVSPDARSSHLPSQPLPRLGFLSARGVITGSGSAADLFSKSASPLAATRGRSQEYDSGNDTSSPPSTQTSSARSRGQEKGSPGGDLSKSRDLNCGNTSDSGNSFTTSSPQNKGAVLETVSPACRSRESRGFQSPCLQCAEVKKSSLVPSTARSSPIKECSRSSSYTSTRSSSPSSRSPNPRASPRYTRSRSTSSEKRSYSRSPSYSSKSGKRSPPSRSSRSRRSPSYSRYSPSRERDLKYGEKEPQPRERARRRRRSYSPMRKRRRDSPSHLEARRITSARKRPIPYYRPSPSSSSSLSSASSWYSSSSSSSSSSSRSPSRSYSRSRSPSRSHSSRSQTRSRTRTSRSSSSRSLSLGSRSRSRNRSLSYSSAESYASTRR
Assay: AP-MS nSR100 interaction partners from mouse N2A cells (Table 5)
Format: binding
Settings: for AvgP (average of the SAINT scores) / MaxP (maximal SAINT score): bait Srrm4; for FoldChange between the prey Avg spectra of the bait and control purifications: bait Srrm4, 0.1 added to prevent division by 0; for AvgSpec (average number of spectra per replicate): bait Srrm4, 2 replicates; for Spectra (number of spectra for the prey in the purification of the bait): AP-MS; for SpecSum: bait Srrm4, sum of spectra over 2 replicates

[1] = bait Srrm4, biological replicate 1 (first number of the cell)
[2] = bait Srrm4, biological replicate 2 (second number of the cell)

Source text: By applying affinity purification coupled to mass-spectrometry (AP-MS), several interaction nSR100 partner proteins were detected that provide insight into mechanisms of post-translational regulation of nSR100 levels.

AvgP (average of the SAINT scores): 1
MaxP (maximal SAINT score): 1
FoldChange between the prey Avg spectra of the bait and control purifications: 4.95
AvgSpec (average number of spectra per replicate): 49.5
Spectra (number of spectra for the prey in the purification of the bait) [1]: 44
Spectra (number of spectra for the prey in the purification of the bait) [2]: 55
SpecSum: 99
B1: Csnk2a1 (protein, UniProt Q60737 1-391, looked up)
Casein kinase II subunit alpha: MSGPVPSRARVYTDVNTHRPREYWDYESHVVEWGNQDDYQLVRKLGRGKYSEVFEAINITNNEKVVVKILKPVKKKKIKREIKILENLRGGPNIITLADIVKDPVSRTPALVFEHVNNTDFKQLYQTLTDYDIRFYMYEILKALDYCHSMGIMHRDVKPHNVMIDHEHRKLRLIDWGLAEFYHPGQEYNVRVASRYFKGPELLVDYQMYDYSLDMWSLGCMLASMIFRKEPFFHGHDNYDQLVRIAKVLGTEDLYDYIDKYNIELDPRFNDILGRHSRKRWERFVHSENQHLVSPEALDFLDKLLRYDHQSRLTAREAMEHPYFYTVVKDQARMSSTSMAGGSTPVSSANMMSGISSVPTPSPLGPLAGSPVIAAANSLGIPVPAAAGAQQ

AvgP (average of the SAINT scores): 1
MaxP (maximal SAINT score): 1
FoldChange between the prey Avg spectra of the bait and control purifications: 60
AvgSpec (average number of spectra per replicate): 6
Spectra (number of spectra for the prey in the purification of the bait) [1]: 4
Spectra (number of spectra for the prey in the purification of the bait) [2]: 8
SpecSum: 12
B2: Ccnb2 (protein, UniProt P30276 1-398, looked up)
G2/mitotic-specific cyclin-B2: MALLRRPTVSSDLKNIDTEVIPKAKSHVTIRRAVLEEIGNKVRNRTTQVAKKPQNTKVPALPTKVTNVNKQPKPTASVKPVQMEALAPKDRPPAPEDVSMKEESLCQAFSDALLCKIEDIDNEDRENPQLCSDYVKDIYQYLRQLEVLQSINPHFLDGRDINGRMRAILVDWLVQVHSKFRLLQETLYMCIAIMDRFLQAQLVCRKKLQLVGITALLLASKYEEMFSPNIEDFVYITDNAYTSSQIREMETLILKELKFELGRPLPLHFLRRASKAGEVDVEQHTLAKYLMELTLVDYDMVHYHPSQVAAAASCLSQKVLGQGKWNLKQQYYTGYMESEVLEVMQHMAKNVVKVNDNRTKFIAVKNKYASSRLLKISTIPQLNSKIIKDLASPLLGSP

AvgP (average of the SAINT scores): 1
MaxP (maximal SAINT score): 1
FoldChange between the prey Avg spectra of the bait and control purifications: 5.07
AvgSpec (average number of spectra per replicate): 73.5
Spectra (number of spectra for the prey in the purification of the bait) [1]: 55
Spectra (number of spectra for the prey in the purification of the bait) [2]: 92
SpecSum: 147
B3: Puf60 (protein, UniProt Q3UEB3 1-564, looked up)
Poly(U)-binding-splicing …: MATATIALQVNGQQGGGSEPAAAAAAAAAAVVAAGDKWKPPQGTESIKMENGQSTGTKLGLPPLTPEQQEALQKAKKYAMEQSIKSVLVKQTIAHQQQQLTNLQMAAVTMGFGDPLSPLQSMAAQRQRALAIMCRVYVGSIYYELGEDTIRQAFAPFGPIKSIDMSWDSVTMKHKGFAFVEYEVPEAAQLALEQMNSVMLGGRNIKVGRPSNIGQAQPIIDQLAEEARAFNRIYVASVHQDLSDDDIKSVFEAFGKIKSCTLARDPTTGKHKGYGFIEYEKAQSSQDAVSSMNLFDLGGQYLRVGKAVTPPMPLLTPATPGGLPPAAAVAAAAATAKITAQEAVAGAAVLGTLATPGLVSPALTLAQPLGALPQAVMAAQAPGVITGVTPARPPIPVTIPSVGVVNPILASPPTLGLLEPKKEKEEEELFPESERPEMLSEQEHMSISGSSARHMVMQKLLRKQESTVMVLRNMVDPKDIDDDLEGEVTEECGKFGAVNRVIIYQEKQGEEEDAEIIVKIFVEFSMASETHKAIQALNGRWFGGRKVVAEVYDQERFDNSDLSA
